From patent US20210347865A1 (STATEN BIOTECHNOLOGY B V, published 2021)

How the values were obtained:
[1] = target: T1, recombinant cynomolgus ApoC3 (cynomolgus monkey, UniProt P18659 21-99, biotinylated in the captured-antigen assays (Tables 6 and 8); sites not stated); test: SPR, biotinylated antigen captured on SA chip, scFv periplasmic extract injected, pH 7.4
T1 construct: No cleavage site is stated, so none is applied; also called rcyApoC3; bio-rcyApoC3

[2] = target: T2, native human ApoC3 (human, UniProt P02656 21-99, biotinylated in the captured-antigen assays (Tables 6 and 8); sites not stated); test: as above
T2 construct: also called nhuApoC3; native huApoC3

[3] = target: T1, recombinant cynomolgus ApoC3; test: SPR, IgG captured via anti-human Fc, ApoC3 analyte 100 nM
Procedure: (§1) Immobilization was performed in accordance with the method provided by Biacore in the NHS/EDC kit (Biacore AB). Briefly, after activation of the chip, a solution of 30 μg/ml anti-human Fcγ antibody in 10 mM acetate buffer with pH 5.0 was injected until the surface density reached approximately 10,000 RU. […] Following antibody capture, 100 μl of HBS-EP buffer was injected and passed through the flow cells at 30 μl/min. To bind target, 60 μl of 400 nM, 200 nM, 100 nM, or 50 nM ApoC3 protein in HBS-EP buffer was injected. An off-rate wash was performed by injection of HBS-EP buffer at 30 μl/min for 5 min. After dissociation, the flow cell surfaces were regenerated by injecting 20 μl of 10 mM glycine at pH 1.5.
(§2) The resulting sensorgrams were analysed with BIAevaluation 4.1 software using the Langmuir 1:1 binding model to derive binding kinetics. Data was zero adjusted and the reference cell sensorgrams were subtracted. A no-analyte blank assay was used for double referencing the sensorgrams corresponding to nhuApoC3 and rcyApoC3 injections. The dissociation and association phase sensorgrams were fitted separately for the 4 different concentration curves. Sensorgrams were excluded from the fitting if maximum RU values were below the limit of detection (i.e., <5 RU). SPR signals were too low to calculate kinetic parameters for […].

[4] = target: T2, native human ApoC3; test: as above
Procedure: as §1, §2

[5] = target: T2, native human ApoC3; test: SPR, IgG captured via anti-human Fc, ApoC3 analyte 50 nM
Procedure: as §1, §2

[6] = target: T1, recombinant cynomolgus ApoC3; test: SPR, biotinylated antigen captured on streptavidin chip, IgG as analyte, pH 7.4
[7] = target: T2, native human ApoC3; test: as above
[8] = target: T1, recombinant cynomolgus ApoC3; test: SPR, IgG captured via anti-human Fc, ApoC3 analyte 200 nM
Procedure: as §1, §2

[9] = target: T2, native human ApoC3; test: as above
Procedure: as §1, §2

[10] = target: T1, recombinant cynomolgus ApoC3; test: SPR, antigen immobilized on CM5 chip, IgG as analyte, pH 7.4
[11] = target: T2, native human ApoC3; test: as above
[12] = target: T1, recombinant cynomolgus ApoC3; test: SPR, IgG captured via anti-human Fc, ApoC3 analyte 400 nM
Procedure: as §1, §2

[13] = target: T2, native human ApoC3; test: as above
Procedure: as §1, §2

T2 sequence (P02656 21-99): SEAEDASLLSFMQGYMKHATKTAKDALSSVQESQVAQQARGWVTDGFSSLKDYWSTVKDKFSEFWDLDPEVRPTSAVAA
T1 sequence (P18659 21-99 limits assumed): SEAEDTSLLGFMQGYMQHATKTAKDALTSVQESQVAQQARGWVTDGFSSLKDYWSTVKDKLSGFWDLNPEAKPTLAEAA

B1: 29B03 scFv (scFv, part only; not given: scFv linker, domain order, c-myc tag, V domains shown, not shown: another chain or arm of the molecule; small tags and cut ends)
VH: QLQLVESGGGLVQPGGSLRLSCAASGFTFGTYSMRWVRQVPRKALEWVSSISTDGGGTAYRDSVKGRFTISRDNAKNTLYLQMNNLKPEDTAIYYCVIAGYSDWGQGTQVTVSS
VL: DVVLTQTPGSLSVVPGESASISCKAGQNLVHPDGKTYLYWLLQKPGQSPQRLIYQVSNRDSGVPDRFTGSGSGTDFTLKISGVKVEDAGVYYCAQGTYWPKTFGQGTKLEIK
R0 [1]: 122 RU
koff [1]: 0.0418 s⁻¹
R0 [2]: 930 RU
koff [2]: 0.000572 s⁻¹

B2: 29A05 IgG (antibody, V domains shown)
VH: QLQLVESGGGLVQPGGSLRLSCAASGFTFGTYSMRWVRQVPRKALEWVSSISTDGGGTAYRDSVKGRFTISRDNAKNTLYLQMNNLKPEDTAIYYCVIAGYSDWGQGTQVTVSS
VL: DVVLTQTPGSLSVVPGESASISCKASQSLVYSDGKTYLYWLLQKPGQSPQRLIYQVSNRDSGVPDRFTGSGSGTDFTLKISGVKVEDAGVYYCAQGTYWPKTFGQGTKLEIK
Kd [3]: 296000 pM
koff [3]: 0.00887 s⁻¹
kon [3]: 30000 M⁻¹ s⁻¹
Kd [4]: 6420 pM
koff [4]: 0.00132 s⁻¹
kon [4]: 206000 M⁻¹ s⁻¹
Kd [5]: 6010 pM
koff [5]: 0.00126 s⁻¹
kon [5]: 210000 M⁻¹ s⁻¹
Kd [6]: 650 pM
koff [6]: 0.000175 s⁻¹
kon [6]: 270000 M⁻¹ s⁻¹
Kd [7]: 130 pM
koff [7]: 6.3e-05 s⁻¹
kon [7]: 500000 M⁻¹ s⁻¹
Kd [8]: 359000 pM
koff [8]: 0.00875 s⁻¹
kon [8]: 24400 M⁻¹ s⁻¹
Kd [9]: 6870 pM
koff [9]: 0.00133 s⁻¹
kon [9]: 194000 M⁻¹ s⁻¹
Kd [10]: 210 pM
koff [10]: 6.4e-05 s⁻¹
kon [10]: 310000 M⁻¹ s⁻¹
Kd [11]: 160 pM
koff [11]: 8.2e-05 s⁻¹
kon [11]: 520000 M⁻¹ s⁻¹
Kd [12]: 365000 pM
koff [12]: 0.00983 s⁻¹
kon [12]: 26900 M⁻¹ s⁻¹
Kd [13]: 7360 pM
koff [13]: 0.00133 s⁻¹
kon [13]: 181000 M⁻¹ s⁻¹

B3: 30D10 IgG (antibody, V domains shown)
VH: QLQLVESGGGLVQPGGSLRLSCAASGFTFGTYSMRWVRQVPRKALEWVSSISTDGGGTAYRDSVKGRFTISRDNAKNTLYLQMNNLKPEDTAIYYCVIAGYSDWGQGTQVTVSS
VL: DVVLTQTPGSLSVVPGESASISCTASQSLRHSDGRTYLYWLRQKPGQSPQRLIKRVSTRDPGVPDRFTGSGSGTDFTLKISGVRAEDAGVYYCAQGTYYPLTFGQGTKVELK
Kd [7]: 100 pM
koff [7]: 0.000126 s⁻¹
kon [7]: 1.29e+06 M⁻¹ s⁻¹
binding result [10]: no binding
Kd [11]: 150 pM
koff [11]: 0.000231 s⁻¹
kon [11]: 1.5e+06 M⁻¹ s⁻¹

B4: 29A06 scFv (scFv, part only; not given: scFv linker, domain order, c-myc tag, V domains shown, not shown: another chain or arm of the molecule; small tags and cut ends)
VH: QLQLVESGGGLVQPGGSLRLSCAASGFTFGTYSMRWVRQVPRKALEWVSSISTDGGGTAYRDSVKGRFTISRDNAKNTLYLQMNNLKPEDTAIYYCVIAGYSDWGQGTQVTVSS
VL: DVVLTQTPGSLSVVPGESASISCKASQNLVHSNGKTYLYWLLQKPGQSPQRLIYQVSNRGSEVPDRFTGSGSGTDFTLKISGVKAEDAGVYYCAQGTYWPKTFGQGTKLEIK
R0 [1]: 125 RU
koff [1]: 0.0406 s⁻¹
R0 [2]: 1010 RU
koff [2]: 0.00162 s⁻¹

B5: 29G11 scFv (scFv, part only; not given: scFv linker, domain order, c-myc tag, V domains shown, not shown: another chain or arm of the molecule; small tags and cut ends)
VH: QLQLVESGGGLVQPGGSLRLSCAASGFTFGTYSMRWVRQVPRKALEWVSSISTDGGGTAYRDSVKGRFTISRDNAKNTLYLQMNNLKPEDTAIYYCVIAGYSDWGQGTQVTVSS
VL: DVVLTQTPGSLSVVPGGSASISCKASQSLVYSDGKTYLYWLRQKPGQSPQRLIYQVSNRPSGVPDRFTGSGSGTDFTLKISGVKAEDAGVYYCAQDTYSTKTFGQGTKLEIK
R0 [1]: 92.7 RU
koff [1]: 0.00714 s⁻¹
R0 [2]: 809 RU
koff [2]: 0.00633 s⁻¹

B6: 5E5 WT scFv (scFv, part only; not given: scFv linker, domain order, c-myc tag, V domains shown, not shown: another chain or arm of the molecule; small tags and cut ends)
VH: QLQLVESGGGLVQPGGSLRLSCAASGFTFGTYSMRWVRQVPRKALEWVSSISTDGGGTAYRDSVKGRFTISRDNAKNTLYLQMNNLKPEDTAIYYCVIAGYSDWGQGTQVTVSS
VL: ATMLTQSPGSLSVVPGESASISCKTSQGLVHSDGKTYFYWFLQKPGQSPQQLIYQVSNRASGVPDRFTGSGSGTDFTLKISGVKAEDAGVYYCAQGTYYPHTFGSGTRLEIK
koff [1]: 0.0391 s⁻¹
R0 [2]: 854 RU
koff [2]: 0.000964 s⁻¹

B7: 29A05 scFv (scFv, part only; not given: scFv linker, domain order, c-myc tag, V domains shown, not shown: another chain or arm of the molecule; small tags and cut ends)
VH: QLQLVESGGGLVQPGGSLRLSCAASGFTFGTYSMRWVRQVPRKALEWVSSISTDGGGTAYRDSVKGRFTISRDNAKNTLYLQMNNLKPEDTAIYYCVIAGYSDWGQGTQVTVSS
VL: DVVLTQTPGSLSVVPGESASISCKASQSLVYSDGKTYLYWLLQKPGQSPQRLIYQVSNRDSGVPDRFTGSGSGTDFTLKISGVKVEDAGVYYCAQGTYWPKTFGQGTKLEIK
R0 [1]: 145 RU
koff [1]: 0.0146 s⁻¹
R0 [2]: 545 RU
koff [2]: 0.0069 s⁻¹

B8: 29G02 scFv (scFv, part only; not given: scFv linker, domain order, c-myc tag, V domains shown, not shown: another chain or arm of the molecule; small tags and cut ends)
VH: QLQLVESGGGLVQPGGSLRLSCAASGFTFGTYSMRWVRQVPRKALEWVSSISTDGGGTAYRDSVKGRFTISRDNAKNTLYLQMNNLKPEDTAIYYCVIAGYSDWGQGTQVTVSS
VL: DVVLTQTPGSLSVVPGESASISCKATQSLVHIDGKTYLYWLLQKPGQSPQRLIYQVSTRDSGVPDRFTGAGSGAEFTLKISGVKAEDAGVYYCAQDTYSTKTFGQGTKLEIK
R0 [1]: 102 RU
koff [1]: 0.00721 s⁻¹
R0 [2]: 833 RU
koff [2]: 0.00435 s⁻¹

B9: 29F10 scFv (scFv, part only; not given: scFv linker, domain order, c-myc tag, V domains shown, not shown: another chain or arm of the molecule; large carriers; small tags and cut ends)
VH: QLQLVESGGGLVQPGGSLRLSCAASGFTFGTYSMRWVRQVPRKALEWVSSISTDGGGTAYRDSVKGRFTISRDNAKNTLYLQMNNLKPEDTAIYYCVIAGYSDWGQGTQVTVSS
VL: DVVLTQTPGSLSVVPGEPASVSCKASQSLVHPDGKTYLYWLLQKPGQSPQRLIYQVSNRGSGVPDRFTGSGSGTDFTLEISGVKAEDAGVYYCAQGTYWPKTFGQGTKLEIK
R0 [1]: 52 RU
koff [1]: 0.059 s⁻¹
R0 [2]: 808 RU
koff [2]: 0.00144 s⁻¹

B10: 30D10 scFv (scFv, part only; not given: scFv linker, domain order, c-myc tag, V domains shown, not shown: another chain or arm of the molecule; small tags and cut ends)
VH: QLQLVESGGGLVQPGGSLRLSCAASGFTFGTYSMRWVRQVPRKALEWVSSISTDGGGTAYRDSVKGRFTISRDNAKNTLYLQMNNLKPEDTAIYYCVIAGYSDWGQGTQVTVSS
VL: DVVLTQTPGSLSVVPGESASISCTASQSLRHSDGRTYLYWLRQKPGQSPQRLIKRVSTRDPGVPDRFTGSGSGTDFTLKISGVRAEDAGVYYCAQGTYYPLTFGQGTKVELK
koff [1]: 0.0436 s⁻¹
R0 [2]: 695 RU
koff [2]: 0.00123 s⁻¹

B11: 29A06 IgG (antibody, V domains shown)
VH: QLQLVESGGGLVQPGGSLRLSCAASGFTFGTYSMRWVRQVPRKALEWVSSISTDGGGTAYRDSVKGRFTISRDNAKNTLYLQMNNLKPEDTAIYYCVIAGYSDWGQGTQVTVSS
VL: DVVLTQTPGSLSVVPGESASISCKASQNLVHSNGKTYLYWLLQKPGQSPQRLIYQVSNRGSEVPDRFTGSGSGTDFTLKISGVKAEDAGVYYCAQGTYWPKTFGQGTKLEIK
Kd [4]: 814 pM
koff [4]: 0.000317 s⁻¹
kon [4]: 390000 M⁻¹ s⁻¹
Kd [5]: 755 pM
koff [5]: 0.000314 s⁻¹
kon [5]: 416000 M⁻¹ s⁻¹
Kd [6]: 460 pM
koff [6]: 0.000169 s⁻¹
kon [6]: 370000 M⁻¹ s⁻¹
Kd [7]: 40 pM
koff [7]: 4.2e-05 s⁻¹
kon [7]: 960000 M⁻¹ s⁻¹
Kd [9]: 910 pM
koff [9]: 0.00032 s⁻¹
kon [9]: 351000 M⁻¹ s⁻¹
Kd [10]: 150 pM
koff [10]: 7.5e-05 s⁻¹
kon [10]: 500000 M⁻¹ s⁻¹
Kd [11]: 70 pM
koff [11]: 6.5e-05 s⁻¹
kon [11]: 950000 M⁻¹ s⁻¹
Kd [12]: 919000 pM
koff [12]: 0.0207 s⁻¹
kon [12]: 22500 M⁻¹ s⁻¹
Kd [13]: 973 pM
koff [13]: 0.000327 s⁻¹
kon [13]: 336000 M⁻¹ s⁻¹
